Where a chain is given by its changes, count along the chain named.

Experiment [1] concerns the target T1, human CD70 (cellularly expressed hCD70) (human, UniProt P32970 1-193).
T1 construct: whole, on cells; also called CHO-K1.hCD70; CHO-K1.CD70
T1 sequence (looked up): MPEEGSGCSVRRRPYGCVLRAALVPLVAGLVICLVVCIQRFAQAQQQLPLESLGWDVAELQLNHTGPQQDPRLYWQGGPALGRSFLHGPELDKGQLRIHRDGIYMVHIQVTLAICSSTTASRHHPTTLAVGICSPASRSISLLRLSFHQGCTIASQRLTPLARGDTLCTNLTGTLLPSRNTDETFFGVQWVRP
As to the kind of experiment: cell ELISA on CHO-K1.hCD70 cells, goat anti-mouse IgG-HRP. As to the method: Cell-based ELISA experiments using purified hCD70 antibodies were performed to determine binding activities of hCD70 to cellularly expressed hCD70. In this cell-ELISA, all incubation steps were followed by a wash step with PBST (PBS with 0.01% Tween 20). CHO-K1.hCD70 cells were seeded (40,000 cells/well) in tissue culture plates and incubated overnight at 37° C. The next day, culture medium was removed and cells were incubated for one hour with (dilutions of) purified antibodies at 37° C. Next, cells were washed with PBST and incubated for one hour at 37° C. with 1:1,000 goat-anti-mouse IgG-HRP (Southern Biotechnology, #1030-05). Subsequently, cells were washed 6 times with PBST and anti-hCD70 immunoreactivity was visualized with 100 μl TMB Stabilized Chromagen (Invitrogen, cat. no. SB02). Reactions were stopped with 100 μl 0.5 M H₂SO₄ and absorbances were read at 450 and 620 nm. […] Calculated EC₅₀, representing the concentration at which 50% of the total binding signal is observed are represented in Table 3 using 2F2 anti-hCD70 antibody (Pelicluster) as a reference.
(In general: ELISA stands for enzyme-linked immunosorbent assay.)

Experiment [2] concerns the target recombinant hCD70 (CD70(h)-muCD8 fusion Protein, Ancell, cat. no. ANC-537-030) (mouse; human). As to the kind of experiment: cell-based competition ELISA: biotinylated CD70(h)-muCD8 (0.5 ug/ml) binding to CHO-K1.CD27 cells, Streptavidin-HRP.
Experiment [3] has the same target. As to the kind of experiment: cell-based competition ELISA: biotinylated CD70(h)-muCD8 (0.5 ug/ml) binding to CHO-K1.hCD27 cells, Streptavidin-HRP (reference antibody, Example 3).
Experiment [4] has as its target T1, human CD70 (cellularly expressed hCD70). Kind of experiment: cell ELISA on CHO-K1.hCD70 cells, goat anti-mouse IgG-HRP (reference antibody, Example 3).
Experiment [5] concerns the target T2, recombinant hCD70 (CD70(h)-muCD8 fusion Protein, Ancell, cat. no. ANC-537-030) (mouse; human, UniProt P01731 28-196; P32970 39-193, biotin (position not stated; detected with Streptavidin-HRP, bound to streptavidin beads)).
T2 construct: Bought fusion protein; also called CD8-hCD70; biotin-hCD8-hCD70 recombinant protein
As to the kind of experiment: cell-based competition ELISA: biotinylated CD70(h)-muCD8 (0.5 ug/ml) binding to CHO-K1.hCD27 cells, Streptavidin-HRP. How it is done:
Blocking properties of the purified antibodies were studied using a cell-based competition assay. The CHO-K1.CD27 assay works along the following principles: CHO-K1.CD27 cells were seeded (40,000 cells/well) in a 96-well plate and incubated overnight at 37° C. After medium removal, 50 μl recombinant hCD70 (CD70(h)-muCD8 fusion Protein (Ancell, cat. no. ANC-537-030) (0.5 μg/ml) and 50 μl of different dilutions of purified anti-hCD70 antibodies were added.
After 1 hour incubation at room temperature, the wells were washed 3 times with PBST. Next, 100 μl/well Streptavidin-HRP conjugate (BD Pharmingen, cat. no. 554066) (1:5,000) was added and cells were incubated for one hour at 37° C. After 6 final washes with PBST TMB Stabilized Chromagen (Invitrogen, cat. no. SB02) (100 μl/well) was added. The reaction was stopped by the addition of 100 μl 0.5 M H₂SO₄. Absorbencies were read at […] and 620 nm. Reference antibody: anti-hCD70, clone 2F2 (Pelicluser). […] Calculated IC₅₀ values of hCD70 antibodies and the reference 2F2 anti-hCD70 antibody, which represent the concentration at which half of the inhibition is observed, are presented in Table 3.

Experiment [6] concerns the target recombinant hCD70 (CD70(h)-muCD8 fusion Protein, Ancell, cat. no. ANC-537-030) (mouse; human). The description is as above.

T2 sequence (P01731 other isoform, or with tags, fused parts or gaps): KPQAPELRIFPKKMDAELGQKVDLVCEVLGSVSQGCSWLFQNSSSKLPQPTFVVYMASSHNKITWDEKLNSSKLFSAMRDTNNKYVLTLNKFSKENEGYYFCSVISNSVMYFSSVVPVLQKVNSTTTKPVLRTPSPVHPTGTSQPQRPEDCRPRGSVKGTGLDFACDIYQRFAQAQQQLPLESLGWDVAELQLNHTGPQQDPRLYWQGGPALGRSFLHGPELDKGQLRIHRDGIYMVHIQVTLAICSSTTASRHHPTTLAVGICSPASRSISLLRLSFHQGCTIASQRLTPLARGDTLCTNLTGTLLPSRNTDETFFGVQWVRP

Ki-24 (antibody) had a concentration giving a half-maximal response (EC50) in experiment [1] of 35 pM. In experiment [2], the IC50 was 1500 pM.
Consider 2F2 (CLB70/2) (antibody), for which the concentration for a half-maximal effect (EC50) stood at 14 pM in experiment [1] and 130 pM in experiment [4]. Further, the IC50 in experiment [3] was below 2600 pM; in experiment [2], 400 pM.
Turning to BU69 (antibody), in experiment [1], the concentration for a half-maximal effect (EC50) was 17 pM. In addition, in experiment [2], the IC50 was determined as 960 pM.

B1: hCD70.21 (antibody, IgG1, V domains shown)
VH: QVQLQQPGAELVKPGTSVKLSCKASGYNFTSYWINWVKLRPGQGLEWIGDIYPGSGSTNYNEKFKSKATLTVDTSSSTAYMQLSSLASEDSALYYCARGHYGSSYGFDYWGQGTTLTVSS
VL: DIVLTQSPASLAVSLGQRATISCRASKSVSTSGYSYMHWYQQKPGQPPKLLIYLASNLESGVPARFSGSGSGTDFTLNIHPVEEEDAATYYCQHSRELPLTFGAGTKLELK
notes: Mouse monoclonal purified from hybridoma supernatant
B1 had a concentration for a half-maximal effect (EC50) in experiment [1] of 260 pM. Moreover, in experiment [5], the IC50 is above 330000 pM.

B2: hCD70.36 (antibody, IgG1, V domains shown)
VH: EVQLQQSGPELVKTGASVKISCKASGYSFTGYYMHWVKQSHGKSLEWIGYISCYNGATSYNQKFKGKATFTVDTSSSTAYMQFNSLTSEDSAVYYCARGGNWDVEYAMDYWGQGTSVTVSS
VL: B1 VL with L100F, A104S, L110I
notes: as for B1
B2: it took 300 pM to reach a half-maximal effect in experiment [1] (EC50). Moreover, the IC50 in experiment [5] was above 330000 pM.

B3: hCD70.32 (antibody, IgG1, V domains shown)
VH: QVQLQQSGDDLVKPGASVKLSCKASGYTFTSYWINWIKQRPGQGLEWIGRIAPGSGSTYYSKIFKGKATLTVDTSSSTAYIQLSSLSSEDSAVYFCSRGDYGDYWGQGTTLTVSS
VL: DIVMTQSHKFMSTSVGDRVSITCKASQDVGTAVAWYQQKPGESPKLLIYWASTRHTGVPDRLTGSGSGTDFTLTISNVHSEDLADYFCQQYSGYPLTFGDGTKLEL
notes: as for B1
Take B3: the 50% effective concentration (EC50) in experiment [1] came to 150 pM. Further, the IC50 in experiment [5] stood at 76000 pM.

B4: hCD70.23 (antibody, IgG1, V domains shown)
VH: QVQLQQSGPEVVRPGVSVKISCKGSGYTFTDYAMHWVKQSHAKSLEWIGVISTYNGNTNYNQKFKGKATMTVDKSSSTAYMELARLTSEDSAIYYCARDYLDYWGQGTTLTVSS
VL: DIVMTQSPSSLTVTAGEKVTMSCKSSQSLLNSGNQKNYLTWYQQKPGQPPKLLIYWASTRESGVPDRFTGSGSGTDFTLTISSVQAEDLAVYYCQNDYSYPFTFGSGTKLEIK
notes: as for B1
Turning to B4, the concentration for a half-maximal effect (EC50) in experiment [1] was 170 pM. Moreover, the half-inhibitory concentration (IC50) in experiment [5] is above 330000 pM.

B5: hCD70.39 (antibody, part only; not given: light chain, IgG1, V domains shown, part only)
VH: QGQMQQSGAELVKPGASVKLSCKTSGFTFSSNYISWLKQKPGQSLEWIAWIYAGTGGTNYNQKFTGKAQLTVDTSSSTAYIQFSSLTTEDSAIYYCARLYGYYFDYWGQGTTLTVSS
The molecule B5 came in with an EC50 in experiment [1] of 340 pM. Further, the IC50 in experiment [6] was above 330000 pM.

B6: hCD70.34 (antibody, IgG1, V domains shown)
VH: QVQLKESGPGLVAPSQSLSITCTVSGFSLTSYGVSWVRQPPGKGLEWLGVIWGDGTTNYHSALISRLSISKDNSKSQVFLKLNSLQIDDTATYYCAKPGDYYGSSYWYFDVWGAGTTVTVSS
VL: DVVLTQTPLSLPVNIGDQASISCKSTKSLLNSDGFTYLDWYLQKPGQSPQLLIYFVSNRFSGVPDRFSGSGSGTDFTLKISRVEADDLGVYYCFQSNYLPYTFGGGTKLEIK
notes: as for B1
For the molecule B6, the midpoint of the response in experiment [1], the EC50, lay at 210 pM. For the same molecule, the 50% inhibitory concentration (IC50) in experiment [5] worked out at 109000 pM.

For orientation: EC50 means the concentration that produces a half-maximal response. Lower therefore signals greater potency. Broadly, the IC50 is the midpoint of a concentration-inhibition curve.
